Results published in PMC6848931, “Exportin-1-Dependent Nuclear Export of DEAD-box Helicase DDX3X is Central to its Role in Antiviral Immunity” (Cells, 2019).

Target: Exportin-1-Ran-GTP complex (human, UniProt O14980 1-1071; P62826 1-216, Q69L)
Assay: AUC; sedimentation velocity with Ran-GTP present; proteins incubated together at equimolar concentrations at 20 °C for 30 min in GF1 buffer (20 mM Tris-Cl pH 7.5, 100 mM NaCl, 5 mM MgOAc, 2 mM DTT); 40,000 rpm, 280 nm, c(s) analysis
Settings: both partners purified

| Binder | binding result |
| --- | --- |
| 6His-DDX3X(1-580) (domain or fragment, DEAD-box helicase 3, X-linked (DDX3X), human, residues 1-580 of the 662-residue protein; Cloned in pCOLD-IV with an N-terminal 6His tag; no removal of the tag is described; also called wild-type DDX3X(1‒580); DEAD-box helicase 3, X-linked; source: E. coli BL21(DE3), purified (Ni-NTA, Superdex 200 SEC)) MSHVAVENALGLDQQFAGLDLNSSDNQSGGSTASKGRYIPPHLRNREATKGFYDKDSSGWSSSKDKDAYSSFGSRSDSRGKSSFFSDRGSGSRGRFDDRGRSDYDGIGSRGDRSGFGKFERGGNSRWCDKSDEDDWSKPLPPSERLEQELFSGGNTGINFEKYDDIPVEATGNNCPPHIESFSDVEMGEIIMGNIELTRYTRPTPVQKHAIPIIKEKRDLMACAQTGSGKTAAFLLPILSQIYSDGPGEALRAMKENGRYGRRKQYPISLVLAPTRELAVQIYEEARKFSYRSRVRPCVVYGGADIGQQIRDLERGCHLLVATPGRLVDMMERGKIGLDFCKYLVLDEADRMLDMGFEPQIRRIVEQDTMPPKGVRHTMMFSATFPKEIQMLARDFLDEYIFLAVGRVGSTSENITQKVVWVEESDKRSFLLDLLNATGKDSLTLVFVETKKGADSLEDFLYHEGYACTSIHGDRSQRDREEALHQFRSGKSPILVATAVAARGLDISNVKHVINFDLPSDIEEYVHRIGRTGRVGNLGLATSFFNERNINITKDLLDLLVEAKQEVPSWLENMAYEHHY | binds |
| DDX3X(1-168) (domain or fragment, DEAD-box helicase 3, X-linked (DDX3X), human, residues 1-168; The purification section names only the 1-580 constructs; the expression and purification of the 1-168 fragment are not described on their own; also called DDX3X(1–168) fragment; source: purified recombinant; truncations were cloned in pCOLD-IV for bacterial expression) MSHVAVENALGLDQQFAGLDLNSSDNQSGGSTASKGRYIPPHLRNREATKGFYDKDSSGWSSSKDKDAYSSFGSRSDSRGKSSFFSDRGSGSRGRFDDRGRSDYDGIGSRGDRSGFGKFERGGNSRWCDKSDEDDWSKPLPPSERLEQELFSGGNTGINFEKYDDIPV | binds |
